For 41 molecules, binding signal results are on record in paper PMC11417369, “DNA sequence and chromatin differentiate sequence-specific transcription factor binding in the human malaria parasite Plasmodium falciparum”.

T1: HDP1 homeodomain-like (Plasmodium falciparum, UniProt Q8IKH4 2990-3078)
T1 sequence: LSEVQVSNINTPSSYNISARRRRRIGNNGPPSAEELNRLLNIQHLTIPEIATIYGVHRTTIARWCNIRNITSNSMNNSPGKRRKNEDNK

B1: GTGCAC_negctrl_site240 (dsDNA)
DNA 1: TTTTTTTTTTTTTTTTTTTGATTCTTATAAAAATTT
DNA 2: AAATTTTTATAAGAATCAAAAAAAAAAAAAAAAAAA
B2: GTGCAC_negctrl_site722 (dsDNA)
DNA 1: ATAATACAAAAAAAAAAAAAAAATAAAATAATAAAA
DNA 2: TTTTATTATTTTATTTTTTTTTTTTTTTTGTATTAT
B3: GTGCAC_site9856 (dsDNA)
DNA 1: TTAGCAGGACGTTTGGTGCACGTACTGTTTTTCTTT
DNA 2: AAAGAAAAACAGTACGTGCACCAAACGTCCTGCTAA
B4: GTGCAC_site10110 (dsDNA)
DNA 1: AGTAGATTTTTATTAGTGCATTTTATACTACAAAAA
DNA 2: TTTTTGTAGTATAAAATGCACTAATAAAAATCTACT
B5: GTGCAC_negctrl_site74 (dsDNA)
DNA 1: AATTGGAAGAAAAAAAAGGAAGGAAAGTTATTACAT
DNA 2: ATGTAATAACTTTCCTTCCTTTTTTTTCTTCCAATT
B6: GTGCAC_site10338 (dsDNA)
DNA 1: TGATATAAAATTAAAGTGCAAAAAAAAAATAAAAAA
DNA 2: TTTTTTATTTTTTTTTTGCACTTTAATTTTATATCA
B7: GTGCAC_site10465 (dsDNA)
DNA 1: TGGTATGCAATATTGGTGCGTATATATTTTAAAGGG
DNA 2: CCCTTTAAAATATATACGCACCAATATTGCATACCA
B8: GTGCAC_negctrl_site29 (dsDNA)
DNA 1: TAAGTCAAAACTTTTTTTTCTAAATTTCCATAATTA
DNA 2: TAATTATGGAAATTTAGAAAAAAAAGTTTTGACTTA
B9: GTGCAC_negctrl_site697 (dsDNA)
DNA 1: AAAACTTTTAAAATTTTGTATTCATTCCTTCAACAA
DNA 2: TTGTTGAAGGAATGAATACAAAATTTTAAAAGTTTT
B10: GTGCAC_site9692 (dsDNA)
DNA 1: TATATATGTATAAGAGTGCATATGCATATATGTATA
DNA 2: TATACATATATGCATATGCACTCTTATACATATATA
B11: GTGCAC_site10562 (dsDNA)
DNA 1: TTATTTATTTATATAGTGCAATAAACACATAAATAG
DNA 2: CTATTTATGTGTTTATTGCACTATATAAATAAATAA
B12: GTGCAC_site9865 (dsDNA)
DNA 1: ATGTTGCTCATATGAGTGCACGTTTCATTTCAGTTT
DNA 2: AAACTGAAATGAAACGTGCACTCATATGAGCAACAT
B13: GTGCAC_negctrl_site466 (dsDNA)
DNA 1: AAAAAAATTAAAAATTAAAATTAAAAATAATATATA
DNA 2: TATATATTATTTTTAATTTTAATTTTTAATTTTTTT
B14: GTGCAC_site10123 (dsDNA)
DNA 1: ATACCTATTTGATGAGTGCATTATCCAATATATGTA
DNA 2: TACATATATTGGATAATGCACTCATCAAATAGGTAT
B15: GTGCAC_site9778 (dsDNA)
DNA 1: CACCCTTTACACAAGGTGCATACTTTATTATATTTT
DNA 2: AAAATATAATAAAGTATGCACCTTGTGTAAAGGGTG
B16: GTGCAC_negctrl_site272 (dsDNA)
DNA 1: AAGTTAGGATAGATCCAATAATTTTTAGTTTCTCTT
DNA 2: AAGAGAAACTAAAAATTATTGGATCTATCCTAACTT
B17: GTGCAC_negctrl_site727 (dsDNA)
DNA 1: TTTTTCTTTTTCTTTTTTTCTTTTTTTTTTTTTTTC
DNA 2: GAAAAAAAAAAAAAAAGAAAAAAAGAAAAAGAAAAA
B18: GTGCAC_negctrl_site302 (dsDNA)
DNA 1: TAAAAAAATAAAAAAAAAAAATTATAAAATTATATA
DNA 2: TATATAATTTTATAATTTTTTTTTTTTATTTTTTTA
B19: GTGCAC_negctrl_site338 (dsDNA)
DNA 1: TTTTTTTTTTTTTTTTTTTTTTTGTCTTATTTTTTT
DNA 2: AAAAAAATAAGACAAAAAAAAAAAAAAAAAAAAAAA
B20: GTGCAC_negctrl_site145 (dsDNA)
DNA 1: TTTGTAAAATAATATCTTTCATGTCCTTACTAATTA
DNA 2: TAATTAGTAAGGACATGAAAGATATTATTTTACAAA
B21: GTGCAC_site9537 (dsDNA)
DNA 1: TAAATATATATATGTGTGCACTTCTTCATTTTAATA
DNA 2: TATTAAAATGAAGAAGTGCACACATATATATATTTA
B22: GTGCAC_negctrl_site165 (dsDNA)
DNA 1: AATCGATTGGATAATATTTTTTCTCTTAATTTTTTG
DNA 2: CAAAAAATTAAGAGAAAAAATATTATCCAATCGATT
B23: GTGCAC_site10445 (dsDNA)
DNA 1: ACGGAAAAAGAAAAGGTGCATATGGACACAATATAT
DNA 2: ATATATTGTGTCCATATGCACCTTTTCTTTTTCCGT
B24: GTGCAC_negctrl_site144 (dsDNA)
DNA 1: TTTTTTCTTTTTTTTTTTAATTATAAACATGATATT
DNA 2: AATATCATGTTTATAATTAAAAAAAAAAAGAAAAAA
B25: GTGCAC_negctrl_site725 (dsDNA)
DNA 1: TTTTTAATCAGAAATATTTATTAAAGAATTTTATAG
DNA 2: CTATAAAATTCTTTAATAAATATTTCTGATTAAAAA
B26: GTGCAC_negctrl_site124 (dsDNA)
DNA 1: TTTTAAAATTTTTTTTTTTTTTTTTTATGAACAAGT
DNA 2: ACTTGTTCATAAAAAAAAAAAAAAAAAATTTTAAAA
B27: GTGCAC_negctrl_site380 (dsDNA)
DNA 1: ATGGAAGGATAATAAAAACCTTTACCTTTCTGTTTA
DNA 2: TAAACAGAAAGGTAAAGGTTTTTATTATCCTTCCAT
B28: GTGCAC_negctrl_site34 (dsDNA)
DNA 1: AACTTAAAAAAAAAAAAAAAAAAAAAAAAAAAAAAA
DNA 2: TTTTTTTTTTTTTTTTTTTTTTTTTTTTTTTAAGTT
B29: GTGCAC_site10125 (dsDNA)
DNA 1: ATATATATGGAAACAGTGCAATACATATATATATAT
DNA 2: ATATATATATATGTATTGCACTGTTTCCATATATAT
B30: GTGCAC_negctrl_site318 (dsDNA)
DNA 1: ATTTAAAAAAAAAAAAATAAATAACTTGAAAAACAA
DNA 2: TTGTTTTTCAAGTTATTTATTTTTTTTTTTTTAAAT
B31: GTGCAC_site9933 (dsDNA)
DNA 1: ATCTTATATATATGTGTGCACGTATATATAAGCAAT
DNA 2: ATTGCTTATATATACGTGCACACATATATATAAGAT
B32: GTGCAC_negctrl_site487 (dsDNA)
DNA 1: ATCATGGAAAAAACAAATGGGCTACATTACCTTTTG
DNA 2: CAAAAGGTAATGTAGCCCATTTGTTTTTTCCATGAT
B33: GTGCAC_site10413 (dsDNA)
DNA 1: AATAAATTCATGATAGTGCAAAAATTATTTTTGTTA
DNA 2: TAACAAAAATAATTTTTGCACTATCATGAATTTATT
B34: GTGCAC_negctrl_site480 (dsDNA)
DNA 1: TTATAATAAAAGGCTTTACAATTATTAAACAAATAA
DNA 2: TTATTTGTTTAATAATTGTAAAGCCTTTTATTATAA
B35: GTGCAC_site10031 (dsDNA)
DNA 1: ATAAATAAAACAACAGTGCAATAAAATTAGTTGAGG
DNA 2: CCTCAACTAATTTTATTGCACTGTTGTTTTATTTAT
B36: GTGCAC_negctrl_site143 (dsDNA)
DNA 1: TTTTTTTTTTTTTTTTTTTTTTTTTTGTTCAGGCCT
DNA 2: AGGCCTGAACAAAAAAAAAAAAAAAAAAAAAAAAAA
B37: GTGCAC_site10124 (dsDNA)
DNA 1: AAAAAAAAAAAATACGTGCACTATGATATATTATAT
DNA 2: ATATAATATATCATAGTGCACGTATTTTTTTTTTTT
B38: GTGCAC_site10539 (dsDNA)
DNA 1: ATATATTTTTATATAGTGCAAGTAATAAAAAGGAAT
DNA 2: ATTCCTTTTTATTACTTGCACTATATAAAAATATAT
B39: GTGCAC_site9712 (dsDNA)
DNA 1: GAAAGAAAATATTAAGTGCATATTTTAATGATACAA
DNA 2: TTGTATCATTAAAATATGCACTTAATATTTTCTTTC
B40: GTGCAC_negctrl_site2 (dsDNA)
DNA 1: ATATGAACAAAATAAATCTCTTCAAAAATAATGTTC
DNA 2: GAACATTATTTTTGAAGAGATTTATTTTGTTCATAT
B41: GTGCAC_site10078 (dsDNA)
DNA 1: AATTATATATAAAAAGTGCAAAACGATAATTCATCA
DNA 2: TGATGAATTATCGTTTTGCACTTTTTATATATAATT

The series addresses T1, HDP1 homeodomain-like. Description: gcPBM; about 25 ug protein; PBS, 1% milk, 0.2 mg/ml BSA, salmon testes DNA, 0.03% Triton X-100. Particulars: tags: N-terminal GST (pGEX-4T-1), kept; chain copies: 2; label: surface-attached array probe.
For B1, the binding signal was 6.02 ln median PBM intensity, better of two orientations.

As to B2, the binding signal is 6.04 ln median PBM intensity, better of two orientations.

In the case of B3, the binding signal was 9.34 ln median PBM intensity, better of two orientations.

Take B4: the binding signal is 8.86 ln median PBM intensity, better of two orientations.

As for B5, the binding signal is 6.06 ln median PBM intensity, better of two orientations.

For B6, the binding signal was 8.82 ln median PBM intensity, better of two orientations.

Consider B7, for which the binding signal was 8.58 ln median PBM intensity, better of two orientations.

With B8, the binding signal is 5.89 ln median PBM intensity, better of two orientations.

With B9, the binding signal is 6.07 ln median PBM intensity, better of two orientations.

For the molecule B10, the binding signal is 8.71 ln median PBM intensity, better of two orientations.

Take B11: the binding signal was 9.14 ln median PBM intensity, better of two orientations.

In the case of B12, the binding signal was 8.54 ln median PBM intensity, better of two orientations.

Take B13: the binding signal is 5.91 ln median PBM intensity, better of two orientations.

Turning to B14, the binding signal is 8.94 ln median PBM intensity, better of two orientations.

On to B15, for which the binding signal is 8.31 ln median PBM intensity, better of two orientations.

Take B16: the binding signal is 5.7 ln median PBM intensity, better of two orientations.

B17: the binding signal is 5.74 ln median PBM intensity, better of two orientations.

Regarding B18, the binding signal is 5.98 ln median PBM intensity, better of two orientations.

With B19, the binding signal is 5.91 ln median PBM intensity, better of two orientations.

Consider B20, for which the binding signal is 5.95 ln median PBM intensity, better of two orientations.

On to B21, for which the binding signal was 9.22 ln median PBM intensity, better of two orientations.

Regarding B22, the binding signal was 5.77 ln median PBM intensity, better of two orientations.

For the molecule B23, the binding signal was 9.46 ln median PBM intensity, better of two orientations.

For the molecule B24, the binding signal is 6.07 ln median PBM intensity, better of two orientations.

As for B25, the binding signal is 5.95 ln median PBM intensity, better of two orientations.

B26: the binding signal was 5.92 ln median PBM intensity, better of two orientations.

Regarding B27, the binding signal is 5.82 ln median PBM intensity, better of two orientations.

For the molecule B28, the binding signal was 5.77 ln median PBM intensity, better of two orientations.

As for B29, the binding signal was 9.41 ln median PBM intensity, better of two orientations.

For B30, the binding signal was 6.08 ln median PBM intensity, better of two orientations.

On to B31, for which the binding signal is 9.28 ln median PBM intensity, better of two orientations.

Regarding B32, the binding signal was 5.94 ln median PBM intensity, better of two orientations.

For the molecule B33, the binding signal is 8.5 ln median PBM intensity, better of two orientations.

Regarding B34, the binding signal is 6.03 ln median PBM intensity, better of two orientations.

As to B35, the binding signal is 8.8 ln median PBM intensity, better of two orientations.

On to B36, for which the binding signal is 5.99 ln median PBM intensity, better of two orientations.

On to B37, for which the binding signal was 9.03 ln median PBM intensity, better of two orientations.

B38: the binding signal is 8.63 ln median PBM intensity, better of two orientations.

As for B39, the binding signal was 8.76 ln median PBM intensity, better of two orientations.

B40: the binding signal was 5.98 ln median PBM intensity, better of two orientations.

For the molecule B41, the binding signal was 8.44 ln median PBM intensity, better of two orientations.
